Experiments:
Test in all cases: holdup assay
Design in all cases: key: below the threshold = too weak to quantify, mostly under pKd 3.1 to 4
Inadl_3, Q8NI35 = biological target: Inadl_3, Q8NI35
FRMPD2_1, Q68DX3 = biological target: FRMPD2_1, Q68DX3
GRIP1_2, Q9Y3R0 = biological target: T1, GRIP1_2, Q9Y3R0
T1 sequence (Q9Y3R0 145-248, limits assumed, looked up): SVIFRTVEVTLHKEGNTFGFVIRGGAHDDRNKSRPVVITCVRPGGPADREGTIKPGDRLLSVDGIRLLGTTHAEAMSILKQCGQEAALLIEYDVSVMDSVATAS

MPP7, Q5T2T1 = biological target: T2, MPP7, Q5T2T1
T2 sequence (Q5T2T1 134-230, limits assumed, looked up): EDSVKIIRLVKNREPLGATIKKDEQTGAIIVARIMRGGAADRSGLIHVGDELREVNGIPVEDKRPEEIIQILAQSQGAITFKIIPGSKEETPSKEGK

APBA2_2, Q99767 = biological target: T3, APBA2_2, Q99767
T3 sequence (Q99767 654-744, limits assumed, looked up): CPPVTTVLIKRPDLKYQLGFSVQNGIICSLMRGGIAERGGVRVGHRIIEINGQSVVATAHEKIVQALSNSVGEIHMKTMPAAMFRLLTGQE

PDZD2_2, O15018 = biological target: T4, PDZD2_2, O15018
T4 sequence (O15018 329-429, limits assumed, looked up): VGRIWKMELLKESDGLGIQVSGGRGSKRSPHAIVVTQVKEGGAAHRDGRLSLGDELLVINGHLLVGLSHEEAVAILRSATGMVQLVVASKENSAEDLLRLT

NOS1, P29475 = biological target: NOS1, P29475
GRIP1_3, Q9Y3R0 = biological target: T5, GRIP1_3, Q9Y3R0
T5 sequence (Q9Y3R0 247-346, limits assumed, looked up): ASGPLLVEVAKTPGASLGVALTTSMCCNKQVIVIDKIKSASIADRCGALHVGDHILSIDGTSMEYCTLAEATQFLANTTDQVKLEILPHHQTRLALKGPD

MPP2, Q14168 = biological target: T6, MPP2, Q14168
T6 sequence (Q14168 180-250, limits assumed, looked up): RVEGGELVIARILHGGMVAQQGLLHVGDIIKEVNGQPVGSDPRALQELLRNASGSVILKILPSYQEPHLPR

DVL3, Q92997 = biological target: T7, DVL3, Q92997
T7 sequence (Q92997 244-331, limits assumed, looked up): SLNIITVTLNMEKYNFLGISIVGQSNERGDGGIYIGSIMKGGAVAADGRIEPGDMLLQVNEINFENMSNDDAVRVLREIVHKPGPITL

PARD3_3, Q8TEW0 = biological target: PARD3_3, Q8TEW0
FRMPD4, Q14CM0 = biological target: FRMPD4, Q14CM0
DLG1_1, Q12959 = biological target: DLG1_1, Q12959
CARD11, Q9BXL7 = biological target: T8, CARD11, Q9BXL7
T8 sequence (Q9BXL7 662-765, limits assumed, looked up): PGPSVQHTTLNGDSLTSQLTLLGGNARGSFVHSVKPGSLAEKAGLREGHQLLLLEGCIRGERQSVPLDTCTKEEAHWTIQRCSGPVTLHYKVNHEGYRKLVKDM

LIN7B, Q9HAP6 = biological target: T9, LIN7B, Q9HAP6
T9 sequence (Q9HAP6 88-185, limits assumed, looked up): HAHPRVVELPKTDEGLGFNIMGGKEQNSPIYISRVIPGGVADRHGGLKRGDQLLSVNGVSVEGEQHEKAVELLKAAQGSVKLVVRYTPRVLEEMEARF

TIAM2, Q8IVF5 = biological target: T10, TIAM2, Q8IVF5
T10 sequence (Q8IVF5 885-986, limits assumed, looked up): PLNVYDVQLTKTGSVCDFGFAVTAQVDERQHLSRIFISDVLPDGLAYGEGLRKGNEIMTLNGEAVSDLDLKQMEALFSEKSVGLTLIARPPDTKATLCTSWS

SCRIB_3, Q14160 = biological target: SCRIB_3, Q14160
FRMPD2_2, Q68DX3 = biological target: FRMPD2_2, Q68DX3
Inadl_9, Q8NI35 = biological target: Inadl_9, Q8NI35
MPDZ_10, O75970 = biological target: T11, MPDZ_10, O75970
T11 sequence (O75970 1624-1722, limits assumed, looked up): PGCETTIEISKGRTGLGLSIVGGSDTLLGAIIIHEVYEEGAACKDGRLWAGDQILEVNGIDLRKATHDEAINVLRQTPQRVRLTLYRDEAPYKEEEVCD

APBA1_1, Q02410 = biological target: T12, APBA1_1, Q02410
T12 sequence (Q02410 651-752, limits assumed, looked up): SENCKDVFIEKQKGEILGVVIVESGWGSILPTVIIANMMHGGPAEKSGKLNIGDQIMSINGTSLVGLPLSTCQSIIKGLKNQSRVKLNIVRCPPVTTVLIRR

PICK1, Q9NRD5 = biological target: PICK1, Q9NRD5
SCRIB_2, Q14160 = biological target: SCRIB_2, Q14160
DLG3_1, Q92796 = biological target: T13, DLG3_1, Q92796
T13 sequence (Q92796 125-227, limits assumed, looked up): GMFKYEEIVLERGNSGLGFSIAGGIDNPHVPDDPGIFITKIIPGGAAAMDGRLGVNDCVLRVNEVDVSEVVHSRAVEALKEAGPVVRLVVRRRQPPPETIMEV

CASK, O14936 = biological target: CASK, O14936
[1] = plain residues with an end cap or a label only (N-terminal biotin on a linker: ttds)
[2] = plain residues with an end cap or a label only (N-terminal biotin on a linker: gsgsgs; C-terminal amide)

Chain of SCRIB_3, Q14160 (Q14160 999-1103): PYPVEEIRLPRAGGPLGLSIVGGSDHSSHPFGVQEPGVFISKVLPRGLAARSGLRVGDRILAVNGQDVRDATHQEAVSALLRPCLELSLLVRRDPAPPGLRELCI
Chain of Inadl_3, Q8NI35 (Q8NI35 359-469): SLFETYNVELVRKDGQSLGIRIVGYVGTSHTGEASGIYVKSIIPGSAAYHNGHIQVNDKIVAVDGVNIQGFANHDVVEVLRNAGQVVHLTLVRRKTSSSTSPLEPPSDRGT
Chain of Inadl_9, Q8NI35 (Q8NI35 1530-1615): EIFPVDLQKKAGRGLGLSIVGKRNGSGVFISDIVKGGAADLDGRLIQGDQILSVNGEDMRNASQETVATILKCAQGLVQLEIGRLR
Chain of NOS1, P29475 (P29475 9-101): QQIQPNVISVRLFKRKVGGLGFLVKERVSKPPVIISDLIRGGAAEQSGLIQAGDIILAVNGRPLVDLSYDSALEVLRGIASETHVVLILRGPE
Chain of FRMPD2_2, Q68DX3 (Q68DX3 944-1038): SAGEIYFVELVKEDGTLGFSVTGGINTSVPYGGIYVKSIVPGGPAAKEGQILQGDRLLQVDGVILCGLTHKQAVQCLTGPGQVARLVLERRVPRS
Chain of SCRIB_2, Q14160 (Q14160 857-960): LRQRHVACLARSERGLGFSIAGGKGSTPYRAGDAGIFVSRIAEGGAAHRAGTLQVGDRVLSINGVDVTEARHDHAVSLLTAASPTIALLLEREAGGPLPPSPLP
Chain of CASK, O14936 (O14936 487-570): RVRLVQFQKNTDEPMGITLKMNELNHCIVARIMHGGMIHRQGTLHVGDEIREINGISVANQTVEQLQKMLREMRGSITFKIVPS
Chain of PICK1, Q9NRD5 (Q9NRD5 17-115): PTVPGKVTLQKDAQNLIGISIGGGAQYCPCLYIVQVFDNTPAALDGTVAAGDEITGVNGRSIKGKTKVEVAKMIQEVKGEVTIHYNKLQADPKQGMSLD
Chain of FRMPD4, Q14CM0 (Q14CM0 67-160): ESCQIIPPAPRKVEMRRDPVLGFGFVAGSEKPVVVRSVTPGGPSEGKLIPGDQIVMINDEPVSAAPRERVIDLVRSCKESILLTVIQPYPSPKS
Chain of FRMPD2_1, Q68DX3 (Q68DX3 770-861): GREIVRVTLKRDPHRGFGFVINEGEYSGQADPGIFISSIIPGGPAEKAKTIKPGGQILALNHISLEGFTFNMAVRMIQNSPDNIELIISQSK
Chain of PARD3_3, Q8TEW0 (Q8TEW0 582-685): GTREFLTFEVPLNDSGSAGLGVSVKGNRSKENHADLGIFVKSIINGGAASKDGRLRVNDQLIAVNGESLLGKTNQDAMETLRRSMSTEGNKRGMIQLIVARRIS

In the case of SSRTRRETQL [HPV16-E6, P03126], the pKd (Inadl_3, Q8NI35; [1]) is reported as “below the threshold”, the pKd (FRMPD2_1, Q68DX3; [1]) is reported as 4.12 and the pKd (GRIP1_2, Q9Y3R0; [1]) is reported as “below the threshold”. The pKd (MPP7, Q5T2T1; [1]) was “below the threshold”, the pKd (APBA2_2, Q99767; [1]) was “below the threshold” and the pKd (PDZD2_2, O15018; [1]) was “below the threshold”. For the same binder, the pKd (NOS1, P29475; [1]) was 4.08, the pKd (GRIP1_3, Q9Y3R0; [1]) was “below the threshold” and the pKd (MPP2, Q14168; [1]) was “below the threshold”. The pKd (DVL3, Q92997; [1]) was “below the threshold”, the pKd (PARD3_3, Q8TEW0; [1]) was 3.65 and the pKd (FRMPD4, Q14CM0; [1]) was 3.83. The pKd (DLG1_1, Q12959; [1]) was 4.67, the pKd (CARD11, Q9BXL7; [1]) was “below the threshold” and the pKd (LIN7B, Q9HAP6; [1]) was 3.91. For the same binder, the pKd (TIAM2, Q8IVF5; [1]) was “below the threshold”, the pKd (SCRIB_3, Q14160; [1]) was 5.29 and the pKd (FRMPD2_2, Q68DX3; [1]) was “below the threshold”. For the same binder, the pKd (Inadl_9, Q8NI35; [1]) was “below the threshold”, the pKd (MPDZ_10, O75970; [1]) was 3.68 and the pKd (APBA1_1, Q02410; [1]) was “below the threshold”. For the same binder, the pKd (PICK1, Q9NRD5; [1]) was “below the threshold”, the pKd (SCRIB_2, Q14160; [1]) was 4.21 and the pKd (DLG3_1, Q92796; [1]) was 3.96. The pKd (CASK, O14936; [1]) was “below the threshold”.

With TLSLTDSSVDGIPPYR [AXIN1_int, O15169] the pKd (Inadl_3, Q8NI35; [2]) was “below the threshold”, the pKd (FRMPD2_1, Q68DX3; [2]) was “below the threshold” and the pKd (GRIP1_2, Q9Y3R0; [2]) was “below the threshold”. The pKd (MPP7, Q5T2T1; [2]) was “below the threshold”, the pKd (APBA2_2, Q99767; [2]) was “below the threshold” and the pKd (PDZD2_2, O15018; [2]) was “below the threshold”. For the same binder, the pKd (NOS1, P29475; [2]) was “below the threshold”, the pKd (GRIP1_3, Q9Y3R0; [2]) was “below the threshold” and the pKd (MPP2, Q14168; [2]) was “below the threshold”. The pKd (DVL3, Q92997; [2]) was “below the threshold”, the pKd (PARD3_3, Q8TEW0; [2]) was “below the threshold” and the pKd (FRMPD4, Q14CM0; [2]) was “below the threshold”. The pKd (DLG1_1, Q12959; [2]) was “below the threshold”, the pKd (CARD11, Q9BXL7; [2]) was “below the threshold” and the pKd (LIN7B, Q9HAP6; [2]) was 3.72. For the same binder, the pKd (TIAM2, Q8IVF5; [2]) was 3.9, the pKd (SCRIB_3, Q14160; [2]) was “below the threshold” and the pKd (FRMPD2_2, Q68DX3; [2]) was “below the threshold”. The pKd (Inadl_9, Q8NI35; [2]) was “below the threshold”, the pKd (MPDZ_10, O75970; [2]) was “below the threshold” and the pKd (APBA1_1, Q02410; [2]) was “below the threshold”. The pKd (PICK1, Q9NRD5; [2]) was “below the threshold”, the pKd (SCRIB_2, Q14160; [2]) was “below the threshold” and the pKd (DLG3_1, Q92796; [2]) was “below the threshold”. The pKd (CASK, O14936; [2]) was “below the threshold”.

For IYVPEAQTRL [DLGAP4, Q9Y2H0], the pKd (Inadl_3, Q8NI35; [1]) was “below the threshold”, the pKd (FRMPD2_1, Q68DX3; [1]) was “below the threshold” and the pKd (GRIP1_2, Q9Y3R0; [1]) was “below the threshold”. The pKd (MPP7, Q5T2T1; [1]) was “below the threshold”, the pKd (APBA2_2, Q99767; [1]) was “below the threshold” and the pKd (PDZD2_2, O15018; [1]) was “below the threshold”. For the same binder, the pKd (NOS1, P29475; [1]) was 3.76, the pKd (GRIP1_3, Q9Y3R0; [1]) was “below the threshold” and the pKd (MPP2, Q14168; [1]) was “below the threshold”. For the same binder, the pKd (DVL3, Q92997; [1]) was “below the threshold”, the pKd (PARD3_3, Q8TEW0; [1]) was 3.87 and the pKd (FRMPD4, Q14CM0; [1]) was 4.25. The pKd (DLG1_1, Q12959; [1]) was “below the threshold”, the pKd (CARD11, Q9BXL7; [1]) was “below the threshold” and the pKd (LIN7B, Q9HAP6; [1]) was “below the threshold”. The pKd (TIAM2, Q8IVF5; [1]) was “below the threshold”, the pKd (SCRIB_3, Q14160; [1]) was 3.98 and the pKd (FRMPD2_2, Q68DX3; [1]) was “below the threshold”. The pKd (Inadl_9, Q8NI35; [1]) was “below the threshold”, the pKd (MPDZ_10, O75970; [1]) was “below the threshold” and the pKd (APBA1_1, Q02410; [1]) was “below the threshold”. The pKd (PICK1, Q9NRD5; [1]) was “below the threshold”, the pKd (SCRIB_2, Q14160; [1]) was “below the threshold” and the pKd (DLG3_1, Q92796; [1]) was “below the threshold”. For the same binder, the pKd (CASK, O14936; [1]) was “below the threshold”.
